One test has as its target rat PDGF-R β (rat, UniProt Q05030). The experiment in a line: cell-based or functional assay.
For test [1], the target named is T1, PDGF-R β expressed on transfectant cells (CHO PDGF-R β transfectants, CHO C4 line); Sp2/0 PDGF-R β … (human, UniProt P09619). The experiment in a line: competition with 125I-labeled M4TS.11 on Sp2/0 PDGF-R β transfectant cells. How it is done: (§1) Figure 11: FIG. 11 is a graph depicting competitive binding of muM4TS.11 (closed squares) and HuM4TS.11 (open squares) and HuM4TS.11(gamma 1) (open diamonds). Increasing concentrations of cold competitor antibodies were incubated with the Sp2/0 transfectants expressing PDGF-R β in the presence of radiolabeled tracer muM4TS.11, and the ratio of bound/free radioactivity determined. The results shown are mean values of triplicate samples.
(§2) To assess the ability of HuM4TS.11 to compete with the muAb for receptor binding, increasing concentrations of the two antibodies were respectively incubated on ice for one hour with Sp2/0 PDGF-R β transfectant cells and a fixed amount of tracer ^125I-labeled M4TS.11. The sample tubes were processed as in the blocking experiment described. HuM4TS.11 competed less well than muM4TS.11 (FIG. 11).

Test [2] has as its target T1, PDGF-R β expressed on transfectant …. The experiment in a line: competition with 125I-labeled muM4TS.11 on Sp2/0 PDGF-R β transfectant cells. How it is done: as §1, §2
(§3) Loss of binding affinity due to the gamma4 isotype has been observed in another antibody (Horgan et al. (1993) J. Immunol. 150:5400), and may be due to structural constraints imposed on the particular antibody by the gamma4 hinge region. See, Horgan et al. (1993).

The target is the same in test [3]. The experiment in a line: competition with 125I-labeled muM4TS.11 on Sp2/0 PDGF-R β transfectant cells (FIG. 11). How it is done: as §1, §2, §3

B1: muM4TS.11 (antibody, V domains shown)
VH: QVQLQQSGAEVAKPGASVKMSCKASGYTFTNCWMHWVKQRPGQGLEWIGYINPTTGYSEYNQNFKDKATLTADKSSNTAYIQLSSLTSEDSAVYYCTSNYGHYDWFANWGQGTLVT
VL: DIVLTQSPPSLAVSLGQRATISCRASESVDSYGNSFMHWYQQKPGQPPKLLIYRASNLESGIPARFSGGGSRTDFTLTINPVEADDVATYYCQQSNEDPPTFGGGTKLEIK
With B1, in the test with rat PDGF-R β, the “IC50 of inhibition of PDGF BB-stimulated proliferation of rat aortic smooth muscle cells” value was roughly 0.5 µg/mL. Besides, in test [1], the Ka amounted to 5e+08 M⁻¹.

B2: HuM4TS.11(gamma1) (antibody, V domains shown)
VH: QVQLVQSGAEVKKPGASVKVSCKASGYTFTNCWMHWVRQAPGQGLEWIGYINPTTGYSEYNQNFKDKATITADKSTSTAYMELSSLRSEDTAVYYCTSNYGHYDWFGNWGQGTLVT
VL: DIQMTQSPSSLSASVGDRVTITCRASESVDSYGNSFMHWYQQKPGKAPKLLIYRASNLESGIPSRFSGSGSRTDFTLTISSLQPEDVATYYCQQSNEDPPTFGQGTKVEIK
B2 showed a Ka in test [2] of 1.6e+08 M⁻¹. In addition, the “fold difference in competition against muM4TS.11” value in test [3] was roughly 3 fold.
